According to patent US20130064817A1 (Merck Sharp & Dohme, published 2013):

T1: human IL-23R (human, UniProt Q5VWK5 24-353, limits assumed)
T1 construct: KinExA particles are coated with biotinylated IL-23R 'or a fragment thereof, such as the extracellular domain'; also called huIL-23R; hIL-23R
T1 sequence: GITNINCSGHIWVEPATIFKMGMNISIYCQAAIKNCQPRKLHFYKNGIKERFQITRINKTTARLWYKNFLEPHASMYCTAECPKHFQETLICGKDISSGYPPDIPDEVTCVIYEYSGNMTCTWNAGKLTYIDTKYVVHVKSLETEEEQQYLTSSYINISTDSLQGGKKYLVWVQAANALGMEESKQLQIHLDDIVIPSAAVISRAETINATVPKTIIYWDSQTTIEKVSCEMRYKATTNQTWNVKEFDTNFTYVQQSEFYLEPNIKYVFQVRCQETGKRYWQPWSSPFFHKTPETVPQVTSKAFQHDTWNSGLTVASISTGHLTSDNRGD

T2: human IL-23R on human cells (primary splenocytes; KIT225 cells) (human, UniProt Q5VWK5 24-629)
T2 sequence: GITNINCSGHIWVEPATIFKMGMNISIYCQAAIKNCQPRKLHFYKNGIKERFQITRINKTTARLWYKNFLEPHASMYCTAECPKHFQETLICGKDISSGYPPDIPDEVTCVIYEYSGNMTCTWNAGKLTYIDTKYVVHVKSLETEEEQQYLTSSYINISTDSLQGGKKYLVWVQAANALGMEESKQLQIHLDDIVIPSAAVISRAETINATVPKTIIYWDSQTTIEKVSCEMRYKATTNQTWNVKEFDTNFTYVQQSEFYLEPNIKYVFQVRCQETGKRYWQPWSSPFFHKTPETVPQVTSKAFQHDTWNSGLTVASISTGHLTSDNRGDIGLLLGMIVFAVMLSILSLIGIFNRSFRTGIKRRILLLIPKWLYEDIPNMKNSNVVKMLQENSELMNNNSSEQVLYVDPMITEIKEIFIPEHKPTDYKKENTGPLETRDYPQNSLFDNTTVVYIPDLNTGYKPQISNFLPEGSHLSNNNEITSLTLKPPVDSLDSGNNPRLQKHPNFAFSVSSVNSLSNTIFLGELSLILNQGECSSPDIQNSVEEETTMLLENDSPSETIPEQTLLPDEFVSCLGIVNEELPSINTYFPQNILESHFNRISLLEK


Columns and labels:
human IL-23R [1] = molecular target: T1, human IL-23R; experiment: KinExA
Procedure: The equilibrium dissociation constants (Kd) for anti human IL-23R antibodies are determined using the KinExA 3000 instrument. Sapidyne Instruments Inc., Boise Id., USA KinExA uses the principle of the Kinetic Exclusion Assay method based on measuring the concentration of uncomplexed antibody in a mixture of antibody, antigen and antibody-antigen complex. The concentration of free antibody is measured by exposing the mixture to a solid-phase immobilized antigen for a very brief period of time. In practice, this is accomplished by flowing the solution phase antigen-antibody mixture past antigen-coated particles trapped in a flow cell. Data generated by the instrument are analyzed using custom software. Equilibrium constants are calculated using a mathematical theory based on the following assumptions:
PMMA particles (Sapidyne, Cat No. 440198) are coated with biotinylated IL-23R (or a fragment thereof, such as the extracellular domain) according to Sapidyne “Protocol for coating PMMA particles with biotinylated ligands having short or nonexistent linker arms.” EZ-link TFP PEO-biotin (Pierce, Cat. No. 21219) is used to make biotinylated IL-23R, as per the manufacturer's recommendations (Pierce bulletin 0874).

human IL-23R [2] = molecular target: T1, human IL-23R; experiment: BIAcore, antibody immobilized on CM5 chip
Procedure: (§1) BIAcore® label-free interaction analysis system determinations are performed essentially as described at Example 4 of U.S. Patent Application Publication No. 2007/0048315. Briefly, ligands (anti-IL-23R mAbs) are immobilized on a BIAcore® label-free interaction analysis system CM5 sensor chip using standard amine-coupling procedure. Kinetic constants for the various interactions are determined using BIAevaluation software 3.1. The Kd is determined using the calculated dissociation and association rate constants.

[3] = molecular target: T2, human IL-23R on human cells (primary …); experiment: cell-based or functional assay
human IL-23R [4] = molecular target: T1, human IL-23R; experiment: BIAcore, essentially as in Example 4
Procedure: as §1

Kd (human IL-23R [1]) [pM] | Kd (human IL-23R [2]) [pM] | IC50, IFN-γ production by human primary splenocytes exposed to human IL-23 (170 pM) [3] [pM] | IC50, STAT3 phosphorylation in KIT225 cells stimulated with 138 pM human IL-23 [3] [pM] | Kd (human IL-23R [4]) [pM] | Binder
42 | ~300 | – | – | – | rat anti-human IL-23R antibody 8B10 (antibody, rat IgG2a, V domains shown, also called r8B10; parental rat 8B10 antibody) VH: EVKLVESGGGLEQPKGSLKLSCTVSGFDFNSYGMSWVRQAPGKGLDLVADINSKSYNYATYYADSVKDRFTISRDDSQSMVYLEMDNLKTEDTALYYCTVHHSDYFEYWGQGVMVTVSS VL: DIQMTQSPASLSASLGETVSIECLASEDIYNNLAWYQQKPGKSPQLLIYHASSLQDGVPSRFSGSGSGTQYSLKINSLESEDAATYFCLQDSEYPPTFGGGTKLELKR
9 | ~85 | – | – | – | mouse anti-human IL-23R antibody 20D7 (antibody, mouse IgG1, V domains shown, also called m20D7; mouse 20D7 antibody) VH: QIQLVQSGPELKKPGETVKISCKASGYTFTNYAMNWVKQAPGKGLKWMGWINTYTGEPTYSDDFKGRFAFSLETSANTAYLQINNLKNEDTAAYFCTRGGGYDEDYFDYWGQGTTLTVSS VL: not shown
– | – | 34 | 34 | 131 | humanized anti-IL-23R antibody hum20D7 (heavy chain hu20D7-c, light chain hu20D7-II-b) (antibody, human IgG1, kappa, V domains shown) VH: QVQLVQSGAEVKKPGASVKVSCKASGYTFTNYAMNWVRQAPGQGLEWMGWINTYTGEPTYSDDFKGRVTFTLDTSTSTAYMELRSLRSDDTAVYYCARGGGYDEDYFDYWGQGTLVTVSS VL: DIVMTQSPLSLPVTPGEPASISCKSSQSLFNTINQKTYLAWYLQKPGQSPQLLIYFASTRESGVPDRFSGSGSGTDFTLKISRVEAEDVGVYYCQQHYDTPWTFGQGTKVEIKR
